Our source for the protein production values is a protein production outcome set (Wang et al. 2014).

A short description of the data set: label from the status in PepcDB records.
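Also: failed if final PepcDB status was selected cloned or expressed and not failed if soluble or beyond.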

As to “MHNHNNRLVITPGEPAGVGPDLAITLAQQDWPVELVVCADPALLLARASQLNLPLQLREYQADQPAIAQQAGSLTILPVKTAVNVVPGKLDVGNSHYVVETLAKACDGAISGEFAALVTGPVQKSIINDAGIPFIGHTEFFADRSHCQRVVMMLATEELRVALATTHLPLLAVPGAITQASLHEVITILDNDLKTKFGITQPQIYVCGLNPHAGEGGHMGHEEIDTIIPALNTLRQQGINLIGPLPADTLFQPKYLQHADAVLAMYHDQGLPVLKYQGFGRAVNITLGLPFIRTSVDHGTALELAATGTADVGSFITALNLAIKMINNSNE”, the protein production entry is “not failed”. On to “MHNLVPAPKQTQSVLIKNATVHTVIQGVLTNTDVLIENGKISALGPQLSTNTTASTQVVDASGKHLYPGLIALDTSLGLEHHHHHH”, for which the protein production entry is “failed”. Take “MHPKTQQILEVFEEINKIPRRSKHEEQISTWLQEWGRSRGFEVKADSLNNVLIKVPATTGYEDSPTLILQGHMDMVCEKCKDSIHDFSRDPIRCICDGDWMRGDGTSIGADDGIALALGLVMAEAGKKGEIGHPPLELLFTVDEETGLTGARGLETGFFEGKILLNLDSEDEGIFVIGCAGGQNSQITLPVEWELLDFKEENLFRFFRLSVEGLEGGHSGTEINKQRANGIQLLSLALVKLRGKLGIENVRLVLLNGGTVHNAIPSTAEAFIALHGEKLEKAAETMSDIRHAFKAEYAKTDPGLILNFEEISREIIFEVAEDKIPREEVSHVRVFSLETEEKLLELILGLPHGVYRMSETIHGLVETSNNLATVRTAGNEVIIVSSQRSSNNLRLAEISGKVEAISKLAGAWVEHEPGYPAWEPNLKSELILKCKQVYTETFGKEPEIEVIHAGLECGIIGSAHEGMEMISFGPTIKDAHSPAEKIFVPSIEKVWIFLENLFKTYC”: the protein production entry is recorded as “failed”. Take “MHPVLIFLFALIAILLFTAKFRLHPFLSLVLVSLLTGILAGEPIRTIEAVTEGLGSVFSRFAIIITSGSIIGLLLQKTGGMSLIASDITRFFKNPLLALSFLGFLFSVPTMCYILAYVIFIPIAKELSSRFNYPPISTATALALGAVASFNLVYPSPVIISAAEELSANRDMLILLGFLTAVPTSFSGYLYARSLGKAEVSGMNEGGVIREKTIVKEKKDLSQENGALQRTENRKPGRFEAYAPIFIPLFLILFEAVLNNPNTLFTFLGNPNVALLIGVLLSIFSGRVLGLPMIRVQVEKAIKRSGVVLLDLCGGGALGATLAMTGAGEALGKFFLQFNLPHILVPFLVAAALQTVQGSRVVTMLVAPSLLLPLVPELGLPPEILILSMASGTFMISHVNDPFFWIFGELAELTPSEVFRSNTLGNALMGVVSFLIVSGIYFFFY”: the protein production result is listed as “failed”. On to “MHRLRAAETGDIEAMTDLLLRHGPNPWNHLPEEGVRAHLRAIADGEVRAVLAERDDRLLGFASFRRTEDFAHYQPQRADAPRAYICEAVVHPAAAGQGLGSALLEAVLAQLADEGIEDVYIDRHEENLASAGMMRKAGFVELETYADPARRPNGSGRSTVCHRNLSLQRRAVR”, for which the protein production result was “failed”.

For “MHRSIRFTFDDRVPRYWHAGRAHTTRFFDCLSFMFPQGEKIFIESVVHFRHKLDKDSALDKAVDDFIYQEASHMREHRAYNQRLCAQGAPVETLERMLLRRRKESARLPASFRLALTASLEHITAILSDQLLRNPAYLKNADPTMAGLWRWHALEEIEHKAVAYDVLCTVERNPLWRYLLRCVAMLSLSVYFTFDLGYFTYHLVRGDKQHRNWREWLRLQWWLFVNPGLLSRIVPAGLFWFVPGFHPNRIDTRALLDTARQALDEQR”, the protein production entry is listed as “failed”. Regarding “MHSLYLGVVKVMAKIILVYANCVNSTAKGDFALAGQIAKDLVREKTSDDIDVVLTSTLDGIARFESLYGKAVDGRVIIEGTSVGLCALELFESVDNEVVAFIEANRCKYAPSDILKRVLSPDSKFLFIGAANQKAIATGDKFTKSWLYISHKGDQPNVYEHFDEDDSLIQSVGLGDDRLGLPSLPKVDELPEMNSTQSQKIPSGEYGFMYLAAVHGIDDVYLMNQYMSLTEMGQYVLVGEYAKQSKEVQMVLHSLQYKGSSVSLTMPQIFFHDSVDNCLMRNMVSKSSGPLVVSTGVMSSIEAMQDGKLTYYQTMSNNTQFVASYLIAVKSICSSDTTLFGSMPKLIIDLSNLLFAEKPLKESQMKEIKSLLGMSSVTSRLGEMNKRIIAKANGTVAGELLSFIGKPKTTQSHKQCISVCMSLRKSGETTSPIFDQALRRAAAWGRLFELKVLIASMSTSDLNKKDKTGNQYTALHWAVMQGHLDCARLLVKSGASVDIQDKSGKSPLHYAIKRGDKETIKLLVQAGASLEIMDDSGAKPCDGSESWVPEYIKSCYEKSGHKSSSLF”, the protein production result is given as “failed”. With “MHSTPKRVLLAGATGLTGEHLLDRILSEPTLAKVIAPARKALAEHPRLDNPVGPLAELLPQLDGSIDTAFCCLGTTIKEAGSEEAFRAVDFDLPLAVGKRALEMGARHYLVVSALGADAKSSIFYNRVKGELEQALQEQGWPQLTIARPSLLFGPREEFRLAEILAAPIARILPGKYHGIEACDLARALWRLALEEGKGVRFVESDELRKLGK”, the protein production entry is reported as “not failed”. Regarding “MHSVHPTPKFSIITVTYNAEKVLEDTIQSVISQTYHHVEYIIVDGASKDGTLSIIDRYRPRITTVVSEPDKGLYDAMNKAISLASGDYLCFLNAGDCFHEDDTLQQMVHSIHGSVLPDVIYGETAIVDKDRHFLHMRRLSAPEKLDWKSFKQGMLVCHQAFFARHTLVEPYDLSYRYSADFDWCIRIMKKAYTLHNTHLTIIDYLDEGMTTQNRKASLKERFRIMAKHYGWISTAAHHAWFVLRLIIKPGQLEHHHHHH”, the protein production entry is “not failed”.

As for “MHTEQALHTRIADIVESIILKKVTPDTALISSGLVDSLAAVDITLAVESEYGCSIPAPEIAEHLQSVRTLAGYVAANSQ”, the protein production result was “failed”. The result for “MHTTSGRWGYGLFLALLTALLWGILPIKLKQVLQVVDPITVTWYRLLVSGGLLFAWLAAQRRLPSMRKLAPRGKGLVLVAVLGLMGNYVLYLIGLKLLSPGTAQLVVQIGPVLLLVASVFVFRERFSVGQGMGLLVLLAGFGLFFNQRLEELLTSLGTYTTGVLTILLATSIWVFYALSQKQLLTVWHSQQVMMVIYLSCAALLTPWVHPLEALQLTPVQGWLLLACCLNTLVAYGAFAEALAHWEASRVSATLALTPLVTFVAVALAAWVWPEYVHAEDINALGYVGAVTVVFGSALVALGPSLVTSWRARRERGQRAYSSEG” reads “failed”; that for “MHVQEWLETVPAVSIYALVGLVIGLESLGIPLPGEIVLISAALLSSQHGGINPVILGICATVGAVVGDSIGYAIGRKGGRPLLAWLGNKFPRHFGEGHIATAERSFEKWGMWAVFFGRFVALLRIFAGPLAGVLRMPYWKFLIANVLGGIIWAGGTTAVIYYVGVVAESWLKRFSYLGLVAAVLIGLASMLVIKRKAKKAAAEREAAEPETVPAAD”, “failed”; that for “MHYRWTLLTLAASLLCVPSASGLAEFGIEGMGVVSTPANEARATLSPDGQRIVWASDRTGGTGGWDLWQAQLRGGRWQDAQPLPINTAQDETTPLFSADGRWLLFASTRPGGAGGSDLYRAPVDAQGAVGPVQSLGAAIDSAGNERAPTLSLDGTRLLFASDGHGGAGGMDLFVAHWDGQAFTAPVALVDINSAADELDAAWLGDGRALVWARGKTDDPSQLLLAICKDGHFVQGSPLPLSFNGPQERTFGAVVDTAKPGELLVTGSARAPRAGQLDIYRMKAPAADGDASCR”, “failed”.

Take “MHYSYLEPGLHAELAAITPDEAVAHLRNHLGNLLLDPAVTAAYINRLGVLTPEETTPSTRAWLTYLLVRYCDLLPLDLAAQRILAQVTGNAAPHLRDLERCAIPDPIERKLERLGAGEDSERNRAMLLALLHEYPYSPAIMERLMTVELALDIPVGGEWLPSVRPPAGLLRPLHERLFIHAMMQGDTERALQHAAACVPDNPSPHLLNHLAELHARLGDTQQALNLYGASLEADPLQHPVRLRMEALAKPPRAHADALHHRIAICLYSFNKAELLERTLSSLAASQTGEAHILVLLNGCTDDSATRVAAVNERLFNGRLEVIDMPINIGAPAARNWLLAKQTVREADFVAFLDDDVDVPAAWLPRLVGNLEEHPGAGVAGTRVRNPGDVPRLQYLYRNISVARPGLIRLSLDTPTLHHDTGFYDFTRSTTSVMGCCHVFTRRALDEVPAFDLRFSPSQMDDIAHDIDLALAGFDVLYTGDVVCVHHQMSGLGRANATDWKRFGNVAGNDVKFYYRFADRLDALGRLNNLGFMPDMPPALEHHHHHH”: the protein production result is reported as “not failed”.
